Experimental data: patent publication US20170281765A1 (SORRENTO THERAPEUTICS, published 2017)

Target: T1, human PD-L1 expressed on the cell surface (human, UniProt Q9NZQ7 19-290)
T1 construct: whole, on cells; also called CHO-PD-L1
Assay: flow cytometry on anti-CD3 activated human lymphocytes (CD19 negative gate), PE anti-human Ig detection
Procedure: This example provides a characterization of the disclosed anti-PD-L1 antibodies binding to human PD-L1 expressed on human lymphocytes. Human peripheral blood mononuclear cells were activated by culture with anti-CD3 for three days to promote expression of PD-L1. Binding was assessed by adding serial dilutions of the antibody to the activated lymphocytes. After washing, binding was detected by staining with a phycoerythrin labeled anti-human Ig reagent followed by analysis using a FACS Aria (Becton Dickinson, San Jose, Calif.). Since the anti-human Ig reagent reacts with immunoglobulin on B lymphocytes the cells were co-staining with an anti-human CD19 APC-Cy5 reagent.

T1 sequence (Q9NZQ7 19-290): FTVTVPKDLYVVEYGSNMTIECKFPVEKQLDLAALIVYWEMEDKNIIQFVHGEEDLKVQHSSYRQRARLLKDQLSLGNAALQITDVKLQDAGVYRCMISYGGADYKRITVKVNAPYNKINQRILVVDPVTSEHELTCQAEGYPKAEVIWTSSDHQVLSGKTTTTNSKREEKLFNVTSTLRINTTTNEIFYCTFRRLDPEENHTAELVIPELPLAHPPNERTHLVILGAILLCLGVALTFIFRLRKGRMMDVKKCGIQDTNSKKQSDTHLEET

EC50 [nM] | Binder
~0.1 | anti-PD-L1 antibody H10 (antibody, V domains shown, Fully human antibody of an IgG class) VH: EVQLVQSGGGLVQPGGSLRLSCAASGFTFSSYSMNWVRQAPGKGLEWVSYISSSSSTIYYADSVKGRFTISRDNAKNSLYLQMNSLRDEDTAVYYCARGDYYYGMDVWGQGTTVTVSS VL: EIVLTQSPSSLSASIGDRVTLTCRASQSIRRFLNWYQQKPGKAPELLIYTASSLQSGVPSRFSGSGSGTDFTLTINSLQPEDFATYYCQQSYAVSPYTFGQGTKVEIR
~0.1 | anti-PD-L1 antibody H6 (antibody, V domains shown, Fully human antibody of an IgG class) VH: QMQLVQSGAEVKKPGSSVKVSCKASGGTFSSYAISWVRQAPGQGLEWMGGIIPIFGTANYAQKFQGRVTITADESTSTAYMELSSLRSEDTAVYYCARGNIVATITPLDYWGQGTLVTVSS VL: SYELMQPPSVSVAPGKTATIACGGENIGRKTVHWYQQKPGQAPVLVIYYDSDRPSGIPERFSGSNSGNTATLTISRVEAGDEADYYCQVWDSSSDHRIFGGGTKLTVL
